Experimental data published in patent publication US9395368B2, “Methods, agents and peptides for inducing an immune response to matrix metalloproteinase-2 expressing tumors” (New York University, priority 2010, dated 2016).

Columns and labels:
Format in all cases: cell-based, human
OX40L expression on DCs = OX40L expression on DCs by surface staining; conditions: immature and poly(I:C)-matured DCs, n=9, 24 h
Experimental: Immature and poly(I:C)-matured DCs were incubated with active or HI MMP-2 (0.5 μg/mL or 5 μg/mL) for 24 h. MMP-2 enzymatic activity was controlled (FIG. 13C-D). OX40L expression was assessed by surface staining (A) Histogram plots are shown for representative donor HD1228. Isotype control is represented in tinted gray. (B) Mean fluorescent intensities are represented for all 9 donors tested. […] P values≦0.0167 (*) were considered statistically significant using a Bonferroni correction for 3 comparisons for each DC type. See also FIG. 12.
Dendritic cell preparation and activation. PBMCs were purified from healthy—(HD) or cord blood—(CB) donors and plated at 40×10^6 cells/10 mL/dish in complete IMDM with 5% PHS. Cells were allowed to adhere for 2 h at 37° C. Non-adherent cells were removed. The monocyte-enriched fraction was supplemented with 100 UI/mL rhGMCSF and 300 UI/mL rhIL-4 (R&D Systems) on days 0, 2 and 4. Immature DCs were harvested on day 5 and matured using poly(I:C) at 5 μg/mL/10^6 DCs (Amersham) Secretion of IL-12p70, TNFα, IL-1β, IL-6, IL-8 and IL-10 was assessed on both immature and mature DCs using the Human Inflammatory Cytokine Cytometric Bead Array (BD Pharmingen).

[1] = tested on: CD40, CD80, CD83, CD86, HLA-DR and CCR7 on DCs; test: Expression of maturation markers by DCs
Experimental: Antibodies. Allophycocyanin-conjugated antibody to CCR-7 (150503) was purchased from R&D Systems. Unconjugated (10 μg/mL for blocking experiments) or phycoerythrin-conjugated antibody to OX40L (11C3.1) was from Biolegend. Blocking antibody to IL-4 (8F12; 10 μg/mL) was from Acris. Antibodies to human Vβ chains covering 70% of the repertoire (10Test Beta Mark; Beckman Coulter) were used according to the manufacturer's instructions. Fluorescein isothiocyanate-conjugated antibody to IL-12p35/IL-12p70 (B-T21) and IFNAR1 (EP899Y) were from Abcam. Phycoerythrine-conjugated antibodies to IL-12p40/IL-12p70 (C8.6), IL-10 (B-T10), CD203c (FR3-16A11) were from Miltenyi Biotec. Blocking antibody to HLA-DQ (SPVL3; 20 μg/mL) was from NeoMarkers. […]
(§1) Dendritic cell preparation and activation. […] Immature DCs were harvested on day 5 and matured using poly(I:C) at 5 μg/mL/10^6 DCs (Amersham) Secretion of IL-12p70, TNFα, IL-1β, IL-6, IL-8 and IL-10 was assessed on both immature and mature DCs using the Human Inflammatory Cytokine Cytometric Bead Array (BD Pharmingen).
We next evaluated whether DCs could be involved in the polarization of MMP-2-specific CD4^+ T cells.

[2] = tested on: IL-12p70 production by DCs; test: IL-12p70 production by poly(I:C)-matured DCs (CBA); conditions: DCs stimulated with poly(I:C)
Experimental: (§2) Immature DCs were incubated with MMP-2 (0.5 μg/mL or 5 μg/mL) and poly(I:C)-matured 1 h later. IL-12 levels were measured 16 h later. (A) Results are represented as a percentage of IL-12p70 levels, measured by CBA, produced when DCs were incubated with poly(I:C) only (n=11). (B) For intracellular staining of IL-12p35 and IL-12p40 chains, Brefeldin A was added 4 h after poly(I:C) activation and cells were stained after an additional 12 h incubation. Numbers in the upper right quadrants are the percentages of each population for a representative donor (n=3). (C,D) Immature DCs were incubated with MMP-2 for 1 h (5 μg/mL) before poly(I:C) maturation. Intracellular staining of phosphorylated (Y701) STAT1 (P-STAT1) was performed 3 h later. A representative donor (C) and results for all 3 donors (D) are shown. […] (E) Immature DCs were incubated with MMP-2 and poly(I:C)-matured 1 h later. IFNβ levels were measured by ELISA 16 h later. Results are represented as a percentage of IFNβ levels produced when DCs were incubated with poly(I:C) only (n=9). (F,G) 10^6DCs/lane were treated with 0.1 μg MMP-2 or controls. Poly(I:C) was added 1 h later. IFNAR1 protein expression was detected the next day by Western blot analysis using a rabbit monoclonal antibody. A representative donor (F) and results for all 7 donors (G) are shown. (H) The rhIFNAR1 (5 μg; ≈110 kD) was incubated overnight with 0.3 μg MMP-2 before performing Western blot analysis for IFNAR1. The second band (around 90 kD) and the third band (25 kD) very likely correspond to either a degraded form of the protein still recognized by the antibody or a contaminant present in the commercial protein preparation and non-specifically recognized by the antibody. MMP-2 enzymatic activity was controlled (FIG. 13C-D). […]
as §1

[3] = tested on: phosphorylated (Y701) STAT1; test: Intracellular staining of phosphorylated (Y701) STAT1 in DCs; conditions: DCs preincubated 1 h (5 μg/mL) prior to poly(I:C), 3 h
Experimental: as §2, with “(F,G) 10^6DCs/lane were treated with 0.1 μg MMP-2 or controls. Poly(I:C) was added 1 h later.” left out, “antibody.” for “antibody. A representative donor (F) and results for all 7 donors (G) are shown. (H) The rhIFNAR1 (5 μg; ≈110 kD) was incubated overnight with 0.3 μg MMP-2 before performing Western blot analysis for IFNAR1. The second band (around 90 kD) and the third band (25 kD) very likely correspond to either a degraded form of the protein still recognized by the antibody or a contaminant present in the commercial protein preparation and non-specifically recognized by the antibody. MMP-2 enzymatic activity was controlled (FIG. 13C-D).”
Intracellular staining T-bet and GATA-3 expression was measured on resting T cells. […] Cytokine production by T cells was also assessed by intracellular staining T cells were stimulated with 2 μM overlapping peptides. […]

B1: inactivated MMP-2: MMP-2 enzyme inactivated either by heating or by addition of the MMP-2 inhibitor III; mode not stated at the place (protein, listed as Homo sapiens)
chain: MEALMARGALTGPLRALCLLGCLLSHAAAAPSPIIKFPGDVAPKTDKELAVQYLNTFYGCPKESCNLFVLKDTLKKMQKFFGLPQTGDLDQNTIETMRKPRCGNPDVANYNFFPRKPKWDKNQITYRIIGYTPDLDPETVDDAFARAFQVWSDVTPLRFSRIHDGEADIMINFGRWEHGDGYPFDGKDGLLAHAFAPGTGVGGDSHFDDDELWTLGEGQVVRVKYGNADGEYCKFPFLFNGKEYNSCTDTGRSDGFLWCSTTYNFEKDGKYGFCPHEALFTMGGNAEGQPCKFPFRFQGTSYDSCTTEGRTDGYRWCGTTEDYDRDKKYGFCPETAMSTVGGNSEGAPCVFPFTFLGNKYESCTSAGRSDGKMWCATTANYDDDRKWGFCPDQGYSLFLVAAHEFGHAMGLEHSQDPGALMAPIYTYTKNFRLSQDDIKGIQELYGASPDIDLGTGPTPTLGPVTPEICKQDIVFDGIAQIRGEIFFFKDRFIWRTVTPRDKPMGPLLVATFWPELPEKIDAVYEAPQEEKAVFFAGNEYWIYSASTLERGYPKPLTSLGLPPDVQRVDAAFNWSKNKKTYIFAGDKFWRYNEVKKKMDPGFPKLIADAWNAIPDNLDAVVDLQGGGHSYFFKGAYYLKLENQSLKSVKFGSIKSDWLGC
modifications: heat or inhibitor inactivated
OX40L expression on DCs (OX40L expression on DCs): significantly increased
expression levels of maturation markers CD40, CD80, CD83, CD86, HLA-DR and CCR7 [1]: not significantly affected
reduction in IL-12 [2]: not observed
STAT1 phosphorylation [3]: not
